Residue numbers refer to the chain shown, from its start. Names may count otherwise.
T1: Ste2-F204S (S. cerevisiae) (UniProt D6VTK4)
T1 sequence: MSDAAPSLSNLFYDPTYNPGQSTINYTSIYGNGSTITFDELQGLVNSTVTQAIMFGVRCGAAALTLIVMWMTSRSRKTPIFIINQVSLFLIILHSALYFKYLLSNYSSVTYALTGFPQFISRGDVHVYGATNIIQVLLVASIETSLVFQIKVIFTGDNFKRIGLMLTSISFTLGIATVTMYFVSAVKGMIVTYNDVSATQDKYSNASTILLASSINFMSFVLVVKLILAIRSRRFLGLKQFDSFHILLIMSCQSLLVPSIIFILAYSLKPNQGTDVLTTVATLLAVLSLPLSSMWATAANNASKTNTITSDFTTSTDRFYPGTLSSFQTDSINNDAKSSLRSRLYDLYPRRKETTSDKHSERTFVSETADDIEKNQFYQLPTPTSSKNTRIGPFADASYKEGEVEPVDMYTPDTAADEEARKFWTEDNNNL

B1: Ste2-T326-GFP (receptor)
chain: MSDAAPSLSNLFYDPTYNPGQSTINYTSIYGNGSTITFDELQGLVNSTVTQAIMFGVRCGAAALTLIVMWMTSRSRKTPIFIINQVSLFLIILHSALYFKYLLSNYSSVTYALTGFPQFISRGDVHVYGATNIIQVLLVASIETSLVFQIKVIFTGDNFKRIGLMLTSISFTLGIATVTMYFVSAVKGMIVTYNDVSATQDKYFNASTILLASSINFMSFVLVVKLILAIRSRRFLGLKQFDSFHILLIMSCQSLLVPSIIFILAYSLKPNQGTDVLTTVATLLAVLSLPLSSMWATAANNASKTNTITSDFTTSTDRFYPGTLSS
B2: α-factor receptor (Ste2): T7-Ste2-N25Q,N32Q (protein)
parent chain: T1 sequence with S204F

Experiments:
[1] = molecular target: T1, Ste2-F204S (S. cerevisiae)
[2] = limited trypsin digestion of plasma membranes ± α-factor, western blot; settings: glycan lost; control: epitope-tagged receptors with intact sites

Binder | endocytosis complementation assay: percent of co-expressing cells with one or more GFP fluorescent foci after α-factor treatment (fluorescence microscopy) [1] | structure_or_conformation [2]
B1 | > 80% | 
B2 |  | no change
